Article PMC4447588

Legend:
[1] = system: Cc1cc2nc3c(=O)[nH]c(=O)nc-3n(C[C@H](O)[C@H](O)[C@H](O)COP(=O)(O)O)c2cc1C; experiment: purified protein; conditions: NADPH, pH 7.0, 37 °C, varied: cofactor
[2] = system: NC(=O)C1=CN([C@@H]2O[C@H](COP(=O)(O)OP(=O)(O)OC[C@H]3O[C@@H](n4cnc5c(N)ncnc54)[C@H](OP(=O)(O)O)[C@@H]3O)[C@@H](O)[C@H]2O)C=CC1; experiment: purified protein; conditions: FMN, pH 7.0, 37 °C

With PpArsH (Pseudomonas putida KT2440) the K0.5 [1] was 7.8 µM and the Km [2] was 74 µM.
